Assay: AUC

Leucine-rich amelogenin protein, phosphorylated at S16 (LRAP(+P))
% monomers (2.5 mM CaCl2, pH 7.4): 94% monomers
monomer % (0.78 mg/mL, 50 mM NaCl, pH 7.4): 93.6%
monomer % (0.78 mg/mL, 50 mM NaCl, pH 8.0): 92.3%
monomer % (0.92 mg/mL, 150 mM NaCl, pH 8.0): 92.6%
monomer % (0.92 mg/mL, 200 mM NaCl, pH 8.0): 97.9%
monomer % (1.0 mg/mL, 50 mM NaCl, pH 5.8): 84.4%
monomer % (1.0 mg/mL, 150 mM NaCl, pH 5.8): 90.9%
monomer % (1.0 mg/mL, 150 mM NaCl, pH 7.4): 93.9%
monomer % (1.0 mg/mL, 200 mM NaCl, pH 5.8): 94.5%
monomer % (1.0 mg/mL, 200 mM NaCl, pH 7.4): 97.7%

From paper PMC4400868
